Results: article doi:10.1101/2023.11.29.569239

Experiments:
[1] = target: T1, MBP-DDX3X full-length (UniProt O00571 1-662); experiment: single-particle FRET
[2] = target: T2, MBP-DDX3Y full-length (UniProt O15523 1-660); experiment: single-particle FRET
[3] = target: T1, MBP-DDX3X full-length; experiment: EMSA
[4] = target: T2, MBP-DDX3Y full-length; experiment: EMSA
[5] = target: MBP-ΔΔ DDX3X (UniProt O00571 132-607); experiment: EMSA
[6] = target: MBP-ΔΔ DDX3Y (UniProt O15523 130-605); experiment: EMSA
Chain of MBP-ΔΔ DDX3Y (O15523 130-605, stated change not applied): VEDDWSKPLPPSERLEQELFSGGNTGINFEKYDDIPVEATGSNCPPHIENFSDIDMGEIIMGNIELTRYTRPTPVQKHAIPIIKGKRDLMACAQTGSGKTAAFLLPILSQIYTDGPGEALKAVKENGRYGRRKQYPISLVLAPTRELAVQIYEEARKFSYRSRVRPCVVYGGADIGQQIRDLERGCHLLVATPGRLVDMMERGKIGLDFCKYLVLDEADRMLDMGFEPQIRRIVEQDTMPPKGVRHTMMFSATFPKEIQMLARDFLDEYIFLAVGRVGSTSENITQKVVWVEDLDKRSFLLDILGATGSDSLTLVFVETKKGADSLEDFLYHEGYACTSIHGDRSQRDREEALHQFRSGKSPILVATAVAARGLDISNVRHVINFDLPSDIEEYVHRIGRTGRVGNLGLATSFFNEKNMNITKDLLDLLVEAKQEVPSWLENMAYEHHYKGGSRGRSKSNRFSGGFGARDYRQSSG

T2 sequence (O15523 whole entry): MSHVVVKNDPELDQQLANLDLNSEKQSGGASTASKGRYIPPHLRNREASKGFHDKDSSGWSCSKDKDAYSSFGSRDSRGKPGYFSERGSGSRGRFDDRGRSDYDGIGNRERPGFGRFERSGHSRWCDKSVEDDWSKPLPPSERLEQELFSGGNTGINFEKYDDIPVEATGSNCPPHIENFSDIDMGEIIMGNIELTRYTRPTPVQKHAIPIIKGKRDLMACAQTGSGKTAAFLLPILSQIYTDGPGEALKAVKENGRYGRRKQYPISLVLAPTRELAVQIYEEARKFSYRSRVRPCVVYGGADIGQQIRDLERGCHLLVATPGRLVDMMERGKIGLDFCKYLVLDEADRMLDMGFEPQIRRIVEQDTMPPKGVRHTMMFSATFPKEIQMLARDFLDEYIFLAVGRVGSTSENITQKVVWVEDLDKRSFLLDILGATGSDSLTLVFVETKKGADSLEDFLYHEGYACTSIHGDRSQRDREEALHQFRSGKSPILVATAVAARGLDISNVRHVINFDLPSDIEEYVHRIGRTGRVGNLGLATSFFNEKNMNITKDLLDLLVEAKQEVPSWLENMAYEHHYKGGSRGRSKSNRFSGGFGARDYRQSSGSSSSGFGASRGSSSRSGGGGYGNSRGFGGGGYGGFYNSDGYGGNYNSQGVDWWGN
T1 sequence (O00571 whole entry): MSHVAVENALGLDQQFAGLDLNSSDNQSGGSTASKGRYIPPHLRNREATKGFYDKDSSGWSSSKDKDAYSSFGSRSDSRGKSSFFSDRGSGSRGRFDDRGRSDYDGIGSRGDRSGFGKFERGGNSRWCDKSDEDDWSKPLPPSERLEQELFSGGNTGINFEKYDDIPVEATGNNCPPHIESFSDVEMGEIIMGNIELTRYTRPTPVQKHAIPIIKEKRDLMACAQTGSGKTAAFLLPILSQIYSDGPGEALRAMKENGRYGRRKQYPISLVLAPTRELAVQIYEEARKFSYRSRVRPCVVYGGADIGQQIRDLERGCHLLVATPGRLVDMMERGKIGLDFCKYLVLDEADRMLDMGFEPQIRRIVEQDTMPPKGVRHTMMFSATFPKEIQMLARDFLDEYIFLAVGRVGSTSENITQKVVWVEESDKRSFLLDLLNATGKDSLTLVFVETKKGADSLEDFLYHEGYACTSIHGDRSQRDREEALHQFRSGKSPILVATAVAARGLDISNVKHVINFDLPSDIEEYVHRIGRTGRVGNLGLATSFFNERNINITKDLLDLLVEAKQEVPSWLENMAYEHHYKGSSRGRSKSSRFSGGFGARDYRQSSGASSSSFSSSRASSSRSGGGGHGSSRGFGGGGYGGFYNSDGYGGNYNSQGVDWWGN
Chain of MBP-ΔΔ DDX3X (O00571 132-607, stated change not applied): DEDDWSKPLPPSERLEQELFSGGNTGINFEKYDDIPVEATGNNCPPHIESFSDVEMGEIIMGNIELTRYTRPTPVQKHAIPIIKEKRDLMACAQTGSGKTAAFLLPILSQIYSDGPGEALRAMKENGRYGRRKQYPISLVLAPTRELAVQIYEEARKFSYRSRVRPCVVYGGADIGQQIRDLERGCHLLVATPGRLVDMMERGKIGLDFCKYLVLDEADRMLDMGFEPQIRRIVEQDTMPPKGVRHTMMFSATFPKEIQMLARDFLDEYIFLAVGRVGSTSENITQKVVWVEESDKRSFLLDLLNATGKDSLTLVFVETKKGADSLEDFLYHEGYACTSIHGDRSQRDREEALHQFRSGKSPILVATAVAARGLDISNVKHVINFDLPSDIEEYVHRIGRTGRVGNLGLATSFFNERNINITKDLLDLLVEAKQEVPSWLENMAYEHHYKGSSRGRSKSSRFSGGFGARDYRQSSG

B1: dsRNA I (18-mer/42-mer) (dsRNA)
RNA 1: ACCGCUGCCGUCGCUCCG
RNA 2: UUUUUUUUUUUUUUUUUUUUUUUUCGGAGCGACGGCAGCGGU
[1]
  apparent K (half saturation): 4.1 ± 2 µM
[2]
  apparent K (half saturation): 3.7 ± 3 µM
[3]
  Kd: 519 nM
[4]
  Kd: 884 nM
[5]
  binding signal: > 3 fold Kd increase vs full-length
[6]
  binding signal: > 3 fold Kd increase vs full-length
